# Entries after “also recorded” stand apart in the source; their conditions may differ.
# B1: HD5: human alpha-defensin; synthetic, obtained from Peptides International; three disulfide bonds (PDB 1ZMP) (peptide, UniProt Q01523 20-94, looked up)
# Defensin alpha 5: ESLQERADEATTQKQSGEDNQDLAISFAGNGLSALRTSGSQARATCYCRTGRCATRESLSGVCEISGRLYRLCCR
# modifications: Defensin-5
# Assays:
# [1] = test system: Ad5.F35 capsid (hexon, penton base, fiber); assay: CryoEM difference map analysis of Ad5.F35+HD5; type: binding, human adenovirus; details: 20 µM HD5, 160 µg/ml Ad5.F35, cryoEM difference map, 12 Å resolution
# Procedure: To obtain structural insight into the mechanism of α-defensin-mediated neutralization of HAdV infection, we studied a complex of Ad5.F35 (Ad35F) and HD5 by cryoelectron microscopy (cryoEM). This chimeric virus construct was chosen because of its short fiber and the availability of a cryoEM structure of Ad5.F35 in the absence of defensin for comparison, [31]. […] Ad5.F35 was incubated with a saturating concentration of HD5 (20 µM) then applied to grids and flash frozen for cryoEM. A dataset of 2,611 cryoEM particle images of the Ad5.F35+HD5 complex was collected and processed as performed earlier for Ad5.F35 [31]. The resolution of the icosahedral portion of the Ad5.F35+HD5 reconstruction is estimated as 12 Å by the FSC 0.5 threshold criterion, compared to 6.9 Å for the Ad5.F35 reconstruction. Both cryoEM structures are shown filtered to 12 Å resolution in Figure 4A. The most noticeable difference between the two structures is the presence of more density on top of penton base and around the fiber shaft in the Ad5.F35+HD5 structure. In addition, while the fiber knob is visible in the Ad5.F35 structure, it is only weakly reconstructed in the Ad5.F35+HD5 structure (Figure 4A inset). […]
# HAdV species B1 = assay: Infection assay (hexon staining), HAdV species B1; type: cell-based, human adenovirus; details: 15 µM HD5, A549 cells, hexon staining at ~48 h, vs. no defensin
# Procedure: To determine whether sensitivity to α-defensins is a general property of HAdVs, serotypes representative of HAdV species A–F were tested for infectivity in the presence of 15 µM HD5 or HNP1 (Figure 1). Wild type HAdVs rather than vectors were used for these studies, and infectivity was assessed by staining for hexon production. […] These studies indicate that sensitivity to α-defensins is species specific. In addition, particular HAdV serotypes are not equally sensitive to all defensins, indicating defensin sequence specificity as well.
# Figure 1 Sensitivity to neutralization by alpha-defensins is AdV species specific. HAdVs were incubated with 15 µM HD5 (A) or HNP1 (B) and assessed for infectivity on A549 cells. Data are the mean of the percent infectivity compared to control cells infected with each virus in the absence of defensin for at least three independent experiments ± SD. The upper limit for quantification of this assay is 200%. […]
# Prior to use in this assay, each virus stock was titrated on A549 cells. […] In parallel, wells were infected with two-fold serial dilutions of each virus to establish a standard curve for quantification with an upper limit of 200%. […] Total well fluorescence above background was quantified with ImageJ software. For each virus, samples were quantified by nonlinear regression against the standard curve using Prism software (GraphPad Software, Inc., La Jolla, CA).
molecule,measurement,setting,value
B1,HD5 binding regions on capsid,[1],"HD5 difference density is also found within the central depression of the hexon trimers; also recorded: multiple binding sites for HD5 on the penton complex (penton base and fiber); also recorded: interacts with the exposed surfaces of the three major capsid proteins: hexon, penton base, and fiber; also recorded: extensive binding of HD5 to the fiber"
same,sensitivity to neutralization (infectivity),HAdV species B1,sensitive

# Source: article PMC2891831, “Insight into the Mechanisms of Adenovirus Capsid Disassembly from Studies of Defensin Neutralization” (PLoS Pathogens, 2010)
